B1: 107D10D11-hIgG (antibody, V domains shown)
VH: QIQLKQSGPGLVQPSQSLSITCTVSGFSLSSYGVNWVRQSPGKGLEWLGMIWSGGNTDYNAAFISRVSFTKDNSKSQVFFTMNSLQADDTAIYYCARIWYYGMDYWGQGTSVTVSS
VL: DIVMTQSQKFMSTTVGDRVSITCKASQNVGTAVAWFQQKPGQSPKILIYSASIRYPGVPDRFTGSGSGTDFTLTTSNVQSEDLADYFCLQYITFPRTFGGGTKLYIK
B2: 101H9G9A2-hIgG (antibody, V domains shown)
VH: QVQLLQPGAELVRPGSSVKLSCKASDYTFTSYWMDWVKQRPGQGLEWIGNIYPSDSKTHYNQKFKDKATLTVDKSSSTAYMQLNSLTSEDSAVYYCARRGGYYAYAMDYWGQGTSVTVSS
VL: DIVMTQSPSSLSVSAGEKVTMRCKSSQSLLNSGNQDNYLAWYQQKPGQPPKLLLYGARIRESGVPDRFIGSGSGTDFTLTISSVQAEDLAVYYCQNDHSYPYTFGGGTKVEIK
B3: ch81A1F8-hIgG4 (antibody, V domains shown)
VH: EVQLQQSGPELVKPGASVKISCKATGYLFTGYYMNWVKQSPEKSLEWIGEINPNTGDTNNNQKFKAKATMTVDRSSSTAYMQLKRLTSEDSAVYYCVRRDYGTSLDYWGQGTTLTVSS
VL: DVQITQSPSYLAASPGETITINCRASKSINKYLAWYQEKPGKTNKLLIHSGSTLQSGIPSRFSGSRSGTDFTLTISNLEPEDFAMYYCQQHNEYPITFGAGTKLELK
B4: 58F10-1F6 (antibody, V domains shown)
VH: EVQLRQSGPELVKPGAAVKISCKASGYSFTGYHMNWVKQSPEKSLEWIGEINPITSGITYNQIFKAKATLTVDKSSSTAYLQLKSLTSEDSAVYYCTRRDYGTSLDYWGQGTTLTVSS
VL: DIQMTQITSSLSASLGDRVTITCRASQDISNYLNWYQQKPDGTVKLLIYYTSRLLSGVPSRFSGSGSGTDYSLTISNLEQEDIATYFCQQDHTLPRTFGGGTKLEIR
B5: 56A7E3 (antibody, V domains shown)
VH: EVQLQQSGPELVKPGASVKIPCKASGYTFTAYNMDWVKQSHGMSLEWIGDINPINGGTIYNQNFEGKATLTVDKSSSTAYLELRSLTSEDTAVYYCARRGSYYYGSSHYALDFWGQGTSVSVSS
VL: B4 VL
B6: 71A4F12 (antibody, V domains shown)
VH: B5 VH with I54N, G57D, I59V, E65K, L81M
VL: B4 VL with D17N, T22S, S30R, H92N, T93S, K103R
B7: 100F2E3 (antibody, V domains shown)
VH: B2 VH with L5Q, A24T, Y60S, K65R, A104G
VL: B2 VL with R22S, L54I, R58S, I69T, V110L
B8: 101H9G9A2 (antibody, V domains shown)
VH: B2 VH
VL: B2 VL
B9: 81A1F8 (antibody, V domains shown)
VH: B3 VH
VL: B3 VL
B10: 110D4G4 (antibody, V domains shown)
VH: EVQLQQSGPGLVKPGASVKISCRASGYLFTGYYMNWVKQSPEKSLEWIGEINPNTGDPRYDQKFKAKATLTVDRSSSTAYMHLKSLTSEDSAVYFCARRDYGTSLDYWGQGTTLTVTS
VL: B3 VL with N30S, H49Y, R66G, T69S, N77S, I96L
B11: 73H5-1G2 (antibody, V domains shown)
VH: QVQLKQSGPGLVQPSQSLSITCTVSGFSLTNYGVHWIRQSPGKGLEWLGVIWRGGSTDYNAAFMSRLSITKDNSKSQVFFQMNSLQAADTAIYYCANNYGYDCFAYWGQGTLVTVSA
VL: B3 VL with N30I, H49Y, R66G, S76T, N77S, I96L, K103R
B12: 33E7E12 (antibody, V domains shown)
VH: EVKLEESGGGLVQPGGSMKLSCFVSGFTFSNSWMNWVRQSPEKGLEWVAQIQLKSDNYATRYVESVRGRFIISRDDSKSSVSLQMNNLRTEDTGIYYCSSGTDYWGQGTTLTVSS
VL: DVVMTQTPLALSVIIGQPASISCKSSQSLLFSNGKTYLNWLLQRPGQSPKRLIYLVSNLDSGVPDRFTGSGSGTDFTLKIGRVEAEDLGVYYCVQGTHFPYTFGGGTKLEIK
B13: ch110D4G4-hIgG4 (antibody, V domains shown)
VH: B10 VH
VL: B3 VL with N30S, H49Y, R66G, T69S, N77S, I96L
B14: 107D10D11 (antibody, V domains shown)
VH: B1 VH
VL: B1 VL
B15: 81A1F8-VH-11/VL-11 (antibody, V domains shown)
VH: QVQLVQSGAEVKKPGASVKVSCKASGYLFTGYYMNWVRQAPGQGLEWMGEINPNTGDTNNNQKFKARVTMTVDRSISTAYMELSRLRSDDTAVYYCVRRDYGTSLDYWGQGTLVTVSS
VL: DVQITQSPSSLSASVGDRVTITCRASKSINKYLAWYQQKPGKAPKLLIHSGSTLQSGVPSRFSGSRSGTDFTLTISSLQPEDFATYYCQQHNEYPITFGQGTKLEIK
B16: 81A1F8-VH-31/VL-11 (antibody, V domains shown)
VH: B15 VH with G44R, M70I, I76A, R85S, D89E
VL: B15 VL
B17: 81A1F8-VH-21/VL-21 (antibody, V domains shown)
VH: B15 VH with I76T, R85S, D89E
VL: B15 VL with S10F, D70E
B18: 81A1F8-VH-11/VL-41 (antibody, V domains shown)
VH: B15 VH
VL: B15 VL with S10T, D70E, E81D
B19: 81A1F8-VH-31/VL-41 (antibody, V domains shown)
VH: B15 VH with G44R, M70I, I76A, R85S, D89E
VL: B15 VL with S10T, D70E, E81D
B20: 81A1F8-VH-21/VL-11 (antibody, V domains shown)
VH: B15 VH with I76T, R85S, D89E
VL: B15 VL
B21: 81A1F8-VH-11/VL-21 (antibody, V domains shown)
VH: B15 VH
VL: B15 VL with S10F, D70E
B22: 81A1F8-VH-31/VL-31 (antibody, V domains shown)
VH: B15 VH with G44R, M70I, I76A, R85S, D89E
VL: B15 VL with A43V
B23: 81A1F8-VH-21/VL-31 (antibody, V domains shown)
VH: B15 VH with I76T, R85S, D89E
VL: B15 VL with A43V
B24: 81A1F8-VH-21/VL-41 (antibody, V domains shown)
VH: B15 VH with I76T, R85S, D89E
VL: B15 VL with S10T, D70E, E81D
B25: 81A1F8-hIgG1 (antibody, V domains shown)
VH: B3 VH
VL: B3 VL

Changes are numbered by the printed parent chain.

The target of one experiment is T1, human CD24 (human, UniProt P25063 27-59, heavily glycosylated, GPI-anchored (as described in the background)).
T1 chain: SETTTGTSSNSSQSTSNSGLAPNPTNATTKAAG
Nature of the experiment: FACS binding; MCF7 cells. (Flow cytometry measures light scatter and fluorescence of single cells or particles in a stream.)
A word on the EC50: it is the midpoint of the concentration-response curve. Low values mean an effect from little substance, high ones a need for much substance. Take B1: the EC50 turned out to be 2.19 nM.
On the same count and under the same terms, then B2, with 2.2 nM.
With B3, the EC50 is 4.09 nM.

Another experiment concerns the target T2, Human CD24-mFc (human, UniProt P25063 27-59).
T2 chain: T1 chain
Kind of experiment: SPR (BIAcore); hIgG4.
In general, Kd refers to the equilibrium constant for the complex coming apart. Lower therefore signals a tighter complex. The molecule B3 registered a Kd of 2.23 nM.

In another experiment the target is T1, human CD24. Kind of experiment: FACS binding; Nalm6 cells.
B4 came in with an EC50 of 70.6 nM.
In turn, B5 displayed a concentration for a half-maximal effect (EC50) of 29.2 nM.
Same read-out and setting: next, B6: 24.9 nM; B7: 7.84 nM.
Still for that read-out and setting: then B8, with 2.55 nM; and B9, with 11.4 nM.
The same measure, in the same setting: then B10, with 24.6 nM; and B11, with 108 nM; and B12, with 21.5 nM.

Another experiment has as its target T1, human CD24. Kind of experiment: FACS binding; Huh7 cells.
Turning to B1, the EC50 came to 1.39 nM.
Same read-out and setting: next, B2: 0.815 nM; B13: 1.72 nM.

The target in the next experiment is T2, Human CD24-mFc. Nature of the experiment: SPR (BIAcore). Background: Surface plasmon resonance follows binding to a sensor surface in real time, without labels.
With B14, binding was put at a Kd of 0.762 nM.
Still for that read-out and setting: next, B8: 1.24 nM.
Still for that read-out and setting: then B9, with 0.095 nM; and B10, with 0.124 nM.
On the same count and under the same terms, then B12, with 3.08 nM.

In the next experiment the target is T1, human CD24. Kind of experiment: FACS binding; DoHH2 cells.
Consider B8, for which the EC50 was found to be 0.218 nM.
Still for that read-out and setting: next, B9: 0.819 nM; B10: 0.61 nM; B12: 5.08 nM.

Another experiment concerns the target T2, Human CD24-mFc. Kind of experiment: BLI (Gatorprime).
In turn, B3 yielded a Kd of 0.241 nM.
On the same count and under the same terms, then B15, with 0.0204 nM; and B16, with 0.247 nM; and B17, with 0.0819 nM.
B18 showed a Kd of 0.619 nM.
B19 came in with a Kd of 21600 nM.
On the same count and under the same terms, next, B20: 0.0158 nM.
On to B21, for which the Kd amounted to 0.139 nM.
Still for that read-out and setting: next, B22: 1.11 nM; B23: 0.712 nM; B24: 0.525 nM.

The next experiment has as its target T2, Human CD24-mFc. Kind of experiment: SPR (BIAcore); hIgG1.
On to B25, for which binding was characterised by a dissociation constant (Kd) of 2.29 nM.

The values above are taken from US20240052052A1 (published 2024).
